± gives the uncertainty stated by the source.
B1: Zinc finger MYM-type protein 6, residues 427 to 504; numbered along this chain, O95789 (parent)
chain: KLKCQHCNHLFATKPELLFYKGKMFLFCGKNCSDEYKKKNKVVAMCDYCKLQKIIKETVRFSGVDKPFCSEVCKFLSA

Variants of: B1
Assay: abundance fitness (aPCA) (normalised: wild type 0, dead -1); higher = more abundant; growth selection in yeast, the domain comes from the species named
Details: Homo sapiens

Point of comparison: KLKCQHCNHLFATKPELLFLKGKMFLFCGKNCSDEYKKKNKVVAMCDYCKLQKIIKETVRFSGVDKPFCSEVCKFLSA, abundance fitness 0 ± 0.039. Against it:
- KLKGQHCNHLFATKPELLFYKGKMFLFCGKNCSDEYKKKNKVVAMCDYCKLQKIIKETVRFSGVDKPFCSEVCKFLSA — lower, -0.772 ± 0.035
- KLKCQHCNHLFATKPELLFYKGKMFKFCGKNCSDEYKKKNKVVAMCDYCKLQKIIKETVRFSGVDKPFCSEVCKFLSA — higher, 0.09 ± 0.04
- KLKCQHCNHLFATKPELLFYKGKMFLFCGKNCSDEYKKKNKVVAMCDYCKLQKIIKETVRFSGVDKPFCSEVCKFQSA — higher, 0.603 ± 0.13
- KLKCQHCNHLFATKPELLFYKGKMFLFCGKNCSDEYKKKNKVVAMCDYCKLQKIIKETVRFSGVDKPFCSEVCKFVSA — lower, -0.581 ± 0.098
- KLKCQHCNHLFATKPELLFYKGKMFLFCGKNCSDEYKTKNKVVAMCDYCKLQKIIKETVRFSGVDKPFCSEVCKFLSA — within error, -0.014 ± 0.043
- ALKCQHCNHLFATKPELLFYKGKMFLFCGKNCSDEYKKKNKVVAMCDYCKLQKIIKETVRFSGVDKPFCSEVCKFLSA — lower, -0.276 ± 0.041
- KLKCEHCNHLFATKPELLFYKGKMFLFCGKNCSDEYKKKNKVVAMCDYCKLQKIIKETVRFSGVDKPFCSEVCKFLSA — lower, -0.33 ± 0.054
- KLKCQHCNHLFATKPELLFKKGKMFLFCGKNCSDEYKKKNKVVAMCDYCKLQKIIKETVRFSGVDKPFCSEVCKFLSA — lower, -0.123 ± 0.046
- KLKCQHCNHLFATKPELLFYKGKMFLFCGKNCSDDYKKKNKVVAMCDYCKLQKIIKETVRFSGVDKPFCSEVCKFLSA — within error, -0.047 ± 0.064
- KLKCQHCNHLFATKPELLFYKGKMFLFCGKNCSDEYKKKNKVVAMCDYCKLQKIIKETVWFSGVDKPFCSEVCKFLSA — lower, -0.468 ± 0.17
- KLKCQHINHLFATKPELLFYKGKMFLFCGKNCSDEYKKKNKVVAMCDYCKLQKIIKETVRFSGVDKPFCSEVCKFLSA — lower, -1.02 ± 0.48
- KLKCQHCNHLFATKPELLFYKGKMFLFCGKNCSDEYKKKNKVVAMCDYCKLQKIIKETVRFSGVDKPFCSEVCQFLSA — within error, -0.123 ± 0.13
- KLKCQHCNHLFATKPELLFYKGKMFLFCGKNCSDEYKKKNKVVYMCDYCKLQKIIKETVRFSGVDKPFCSEVCKFLSA — lower, -1.28 ± 0.26
- KLKCQHCNHLFFTKPELLFYKGKMFLFCGKNCSDEYKKKNKVVAMCDYCKLQKIIKETVRFSGVDKPFCSEVCKFLSA — lower, -0.181 ± 0.053
- KLKCQHCNHLFHTKPELLFYKGKMFLFCGKNCSDEYKKKNKVVAMCDYCKLQKIIKETVRFSGVDKPFCSEVCKFLSA — lower, -0.132 ± 0.074
- KLKCQHCNHLFATKPELLFYKGKMFLFCGKNCSDEYKKKNKVVAMCDYCKLQKIIKETVRFVGVDKPFCSEVCKFLSA — lower, -0.536 ± 0.13
- KLYCQHCNHLFATKPELLFYKGKMFLFCGKNCSDEYKKKNKVVAMCDYCKLQKIIKETVRFSGVDKPFCSEVCKFLSA — lower, -0.132 ± 0.056
- KLKCQHCNHLFATKPELLFYKGKMFLFCGKNCSDEYKKKNKVVAMCDYCKLQKIIKETVRFSGVDKPFCSEVCKLLSA — higher, 0.365 ± 0.072
- KLKCQHCNHLFATKPELLFYKGKMFLFCGKNCSDEYKKKNKVVAMCDYCKLQKIIKETVRFSGVDKPFCSEVCKQLSA — within error, 0.096 ± 0.28
- KLKCQHCNHLFATKPELLFYKGKMFLFCGKNCSDEYKKKNKVVAMCDGCKLQKIIKETVRFSGVDKPFCSEVCKFLSA — lower, -0.174 ± 0.077
- KLKCQHCNHLFATKPELLFYKGKMFLFCGKNCSDEYKKKNKVVAMCDYCKLQKIIKETVRFSGVDKEFCSEVCKFLSA — lower, -0.562 ± 0.23
- KLKCQHCNHLFATKPELLFYKGKMFLFCGKNCSDEYKKKNKVVAMTDYCKLQKIIKETVRFSGVDKPFCSEVCKFLSA — lower, -0.311 ± 0.18
- KLKCQHCNHLFATKPELLFYKGKMFLFCGKNCSDEYKKKNKVVAMIDYCKLQKIIKETVRFSGVDKPFCSEVCKFLSA — within error, 0.329 ± 0.44
- KLKCQCCNHLFATKPELLFYKGKMFLFCGKNCSDEYKKKNKVVAMCDYCKLQKIIKETVRFSGVDKPFCSEVCKFLSA — within error, -0.046 ± 0.056
- KLKCQHCNHLFATKPELLFYKGKMFLFCGKNCSDEYKKKNKVVAMCDYCKLQKIIKETLRFSGVDKPFCSEVCKFLSA — within error, 0.051 ± 0.13
- KLKCQHCNHLFATKPELLFYKGKMFLFCGKNCSDEYKKKNKVVAMCDYCKLQKIIQETVRFSGVDKPFCSEVCKFLSA — within error, -0.044 ± 0.14
- KLKCQHCNHLFATKPELLFYKGKMFLFCGKNCSDEYKKKNKVVAMCDYCKLQKIIPETVRFSGVDKPFCSEVCKFLSA — higher, 0.182 ± 0.12
- KLKCQHCNHLFATKPELLQYKGKMFLFCGKNCSDEYKKKNKVVAMCDYCKLQKIIKETVRFSGVDKPFCSEVCKFLSA — within error, 0.081 ± 0.048
- KLKCQHCNHLFATKPELLSYKGKMFLFCGKNCSDEYKKKNKVVAMCDYCKLQKIIKETVRFSGVDKPFCSEVCKFLSA — within error, 0.033 ± 0.039
- KLKCQHCNHLFATKPELLFYKGKMFLFCGKNCSDEYKKKNKVVAMCDYCKLQKIIKETVRFSGVDKPFCSRVCKFLSA — within error, -0.111 ± 0.081
- KLKCQHCNSLFATKPELLFYKGKMFLFCGKNCSDEYKKKNKVVAMCDYCKLQKIIKETVRFSGVDKPFCSEVCKFLSA — within error, -0.032 ± 0.039
- KLKCQHCNHLFATKPALLFYKGKMFLFCGKNCSDEYKKKNKVVAMCDYCKLQKIIKETVRFSGVDKPFCSEVCKFLSA — lower, -0.091 ± 0.031
- KLKCQHCNHLFACKPELLFYKGKMFLFCGKNCSDEYKKKNKVVAMCDYCKLQKIIKETVRFSGVDKPFCSEVCKFLSA — lower, -0.201 ± 0.056
- KLKCQHCNHLFADKPELLFYKGKMFLFCGKNCSDEYKKKNKVVAMCDYCKLQKIIKETVRFSGVDKPFCSEVCKFLSA — lower, -0.146 ± 0.046

Source: the Human Domainome abundance scans (Beltran et al. 2025)
